{"source": "paper PMC4361550", "about": "“Biophysical Analysis of Anopheles gambiae Leucine-Rich Repeat Proteins APL1A^1, APL1B and APL1C and Their Interaction with LRIM1” (PLoS ONE, 2015)", "target": "the molecule itself", "test": "SEC; Superdex 75 (10/300), proteins at 1 mg/ml, 100 mM NaCl, 20 mM HEPES pH 7.5; apparent molecular weight against mass standards"}
{"protein": "APL1B LRR domain (APL1B-LRR) (domain or fragment, Anopheles gambiae, UniProt A7URS4 21-370, looked up, N-linked glycosylation (predicted at Asn166, Asn211, Asn317; N-acetylglucosamine resolved at Asn166), APL1B of Anopheles gambiae, allele from strain G3, LRR domain; cloned as residues 1-370 with its signal peptide; the crystallized protein comprises APL1B 21-370 and a C-terminal 6xHis tag; Model in PDB 4XGO holds residues 25-364 (chain A) and 27-364 (chain B); source: T. ni cells (baculovirus, Bac-to-Bac), purified (Talon, MonoS, SEC); not shown: 6xHis, C-terminal, kept) GQLSYKSMHLTPFTLSALLASFHKVEVLNLNGLQIEEIDTNAFAYAHTIQKLYMRFNVIRYLPPHVFQNVPLLTVLMLDRNDLSSLPPGIFHNTPKLTMLSMSNNNLERIEDDTFQATTSLQNLQLSSNRLTHVDLALIPSLFHVNVSYNLLSTLAIPIAVEELDASHNSINVVRGPVNVELTILKLQHNNLTDTAWLLNYPGLTDVDLSYNQLEIITIHHFVTMQRLERLHVSNNRLVAFDLYGRPIPTLKVLDLSHNHLMWVEHNQAQFDKLQYLYLDHNSIVTLKLSTSHTIKNLTLSHNDWDCNSLRALFRNVARPVVDDADQYCKIDYHLEHGLCCKESDKPYLD", "values": [{"measurement": "stoichiometry N", "value": 2}]}
